Data reported in article PMC11574021, “CEP192 localises mitotic Aurora-A activity by priming its interaction with TPX2” (The EMBO Journal, 2024).
Substitutions are numbered along the chain they refer to. In names and notes the source's numbering stands. Where two headings read alike, the source gives them in different places. One block for each molecule: values may come before it.

T1: unphosphorylated Aurora-A CAKD (Homo sapiens, UniProt O14965, C290A/C393A)
T1 construct: 10 μM Aurora-A kinase domain (phosphorylated or unphosphorylated C290A C393A 122–403); His (N, cleaved yes); made in house; host or cells: E. coli RIL, co-expressed with lambda phosphatase
T1 sequence (O14965 122-403 C290A/C393A): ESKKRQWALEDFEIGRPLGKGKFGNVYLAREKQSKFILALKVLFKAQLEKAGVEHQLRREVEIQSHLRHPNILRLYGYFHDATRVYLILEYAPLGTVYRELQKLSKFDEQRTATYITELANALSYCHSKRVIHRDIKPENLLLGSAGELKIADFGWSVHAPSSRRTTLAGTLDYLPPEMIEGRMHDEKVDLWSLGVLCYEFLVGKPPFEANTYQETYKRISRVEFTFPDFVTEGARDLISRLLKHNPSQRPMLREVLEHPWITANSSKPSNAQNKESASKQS

T2: Aurora-A CAKD (Homo sapiens, UniProt O14965, C290A/C393A)
T2 construct: 25 μM Aurora-A kinase domain (phosphorylated or unphosphorylated C290A C393A 122–403); His (N, cleaved yes); made in house; host or cells: E. coli
T2 sequence (O14965 122-403 C290A/C393A): T1 sequence (O14965 122-403 C290A/C393A)

T3: phosphorylated Aurora-A CAKD (Homo sapiens, UniProt O14965, C290A/C393A)
T3 construct: 10 nM Aurora-A 122–403 C290A C393A phosphorylated protein; His (N, cleaved yes); made in house; host or cells: E. coli B834 (no lambda phosphatase)
T3 sequence (O14965 122-403 C290A/C393A): T1 sequence (O14965 122-403 C290A/C393A)

T4: human CEP192 468–533 (human, UniProt Q8TEP8 468-533)
T4 construct: also called CEP192_(506-527_F); source: E. coli B834 RIL, purified (HisTrap, TEV cleavage, SEC); for crystallisation co-expressed with Aurora-A^M7KD and co-purified; not shown: His6, N-terminal, cleaved; SUMO, N-terminal, cleaved
T4 sequence (looked up): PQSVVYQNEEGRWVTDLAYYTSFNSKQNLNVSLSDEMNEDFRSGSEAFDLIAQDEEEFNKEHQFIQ

T5: Aurora-A^CAKD (Aurora-A kinase domain, aa 122–403 C290A, C393A), unphosphorylated (human, UniProt O14965 122-403, C290A | C393A)
T5 sequence: T1 sequence (O14965 122-403 C290A/C393A)

B1: Aurora-A^CAKD (Aurora-A kinase domain, aa 122–403 C290A, C393A), unphosphorylated (domain or fragment, human, UniProt O14965 122-403, looked up)
chain: T1 sequence (O14965 122-403 C290A/C393A)
notes: Aurora-A kinase domain, human, residues 122-403, variant lacking surface cysteines; also called Aurora-A 122–403 C290A C393A; unphosphorylated Aurora-A^CAKD; source: E. coli RIL, co-expressed with lambda phosphatase, purified (HisTrap, TEV cleavage, SEC); not shown: His6, N-terminal, cleaved
B2: human CEP192 468–533 Y487A/F490A (domain or fragment, UniProt Q8TEP8 468-533, looked up)
chain: T4 sequence (looked up) with Y20A, F23A
notes: source: E. coli B834 RIL, purified (HisTrap, TEV cleavage, SEC); not shown: His6, N-terminal, cleaved; SUMO, N-terminal, cleaved
B3: TPX2 1-43: Aurora-A activating domain of TPX2 (aa 1–43) (protein)
chain: MSQVKSSYSYDAPSDFINFSSLDDEGDTQNIDSWFEEKANLENKLLGKNGTGGLFQGKTPLRKANLQQAIVTPLKPVDNTYYKEAEKENLVEQSIPSNACSSLEVEAAISRKTPAQPQRRSLRLSAQKDLEQKEKHHVKMKAKRCATPVIIDEILPSKKMKVSNNKKKPEEEGSAHQDTAEKNASSPEKAKGRHTVPCMPPAKQKFLKSTEEQELEKSMKMQQEVVEMRKKNEEFKKLALAGIGQPVKKSVSQVTKSVDFHFRTDERIKQHPKNQEEYKEVNFTSELRKHPSSPARVTKGCTIVKPFNLSQGKKRTFDETVSTYVPLAQQVEDFHKRTPNRYHLRSKKDDINLLPSKSSVTKICRDPQTPVLQTKHRARAVTCKSTAELEAEELEKLQQYKFKARELDPRILEGGPILPKKPPVKPPTEPIGFDLEIEKRIQERESKKKTEDEHFEFHSRPCPTKILEDVVGVPEKKVLPITVPKSPAFALKNRIRMPTKEDEEEDEPVVIKAQPVPHYGVPFKPQIPEARTVEICPFSFDSRDKERQLQKEKKIKELQKGEVPKFKALPLPHFDTINLPEKKVKNVTQIEPFCLETDRRGALKAQTWKHQLEEELRQQKEAACFKARPNTVISQEPFVPKKEKKSVAEGLSGSLVQEPFQLATEKRAKERQELEKRMAEVEAQKAQQLEEARLQEEEQKKEELARLRRELVHKANPIRKYQGLEIKSSDQPLTVPVSPKFSTRFHC

How the values were obtained:
[1] = target: T1, unphosphorylated Aurora-A CAKD; experiment: Fluorescence anisotropy competition with FAM-TPX2 7-43; format: binding; conditions: in words, Aurora-A CAKD
Experimental: (§1) Assays were performed in 25 mM HEPES pH 7.5, 150 mM NaCl, 2 mM DTT, 5 mM MgCl2, 0.01% Tween 20. For CEP192 and TPX2 competition assays 10 μM Aurora-A kinase domain (phosphorylated or unphosphorylated C290A C393A 122–403) was preincubated on ice with 100 nM FAM-TPX2 7-43 or 100 nM FAM-CEP192 501–533. For TACC3 competition, due to weaker binding, 25 μM Aurora-A kinase domain (phosphorylated or unphosphorylated C290A C393A 122–403) was preincubated with 100 nM FAM-TACC3 522-536. Serial dilutions of competitor (CEP192) were performed in triplicate into a low volume 384-well black plate, before the premixed Aurora-A and tracer were added. A control row included no tracer. Plates were left incubating for 1 h at room temperature before the fluorescence anisotropy was measured using a HIDEX plate reader, with excitation at 485 nm and emission at 535 nm. For direct binding experiments, the assay was performed as above, but the Aurora-A (122–403 C290A C393A or point mutants) was diluted across the plate from high to low concentration, before the addition of 50 nM tracer (FAM-CEP192 501–533) to three replicate rows. Buffer only was added to the control row.
(§2) Fluorescence anisotropy data were processed using Microsoft Excel to calculate intensity and anisotropy using the equation listed in (Yeo et al, [2013]). The IC50 and Kd values were calculated using Origin (OriginLab) where the data fitted to a sigmoid and are summarised in Appendix Table S3.

[2] = target: T2, Aurora-A CAKD; experiment: Fluorescence anisotropy competition with FAM-TACC3 522-536; format: binding; conditions: in words
Experimental: as §1, with “For direct binding experiments, the assay was performed as above, but the Aurora-A (122–403 C290A C393A or point mutants) was diluted across the plate from high to low concentration, before the addition of 50 nM tracer (FAM-CEP192 501–533) to three replicate rows. Buffer only was added to the control row.” left out
as §2

[3] = target: T3, phosphorylated Aurora-A CAKD; experiment: ADP-Glo kinase assay, kemptide substrate; format: biochemical
Experimental: Reactions were initiated by the addition of 10 μM ATP and 100 μM kemptide as substrate (Cambridge Bioscience Ltd). The reactions were incubated at room temperature for 60 min before 5 μl was transferred into 5 ul of ADP-Glo Reagent (Promega) in a 384-well low volume low binding plate (Greiner Bio-one). After a further 40 min at room temperature, 10 μl of kinase detection reagent was added to each well, and the reaction was allowed to incubate for an additional 30 min. Luminescence was measured on a HIDEX Sense plate reader (HIDEX) using a 1 s integration time. Control data was subtracted from the luminescence and three repeats were averaged before being fitted to a sigmoidal plot using Origin (OriginLab), where IC50 and EC50 values were calculated.

[4] = target: Aurora-A (Homo sapiens) (UniProt O14965); experiment: fluorescence polarisation; conditions: cited from earlier work
Sequence of Aurora-A (Homo sapiens) (O14965 whole entry): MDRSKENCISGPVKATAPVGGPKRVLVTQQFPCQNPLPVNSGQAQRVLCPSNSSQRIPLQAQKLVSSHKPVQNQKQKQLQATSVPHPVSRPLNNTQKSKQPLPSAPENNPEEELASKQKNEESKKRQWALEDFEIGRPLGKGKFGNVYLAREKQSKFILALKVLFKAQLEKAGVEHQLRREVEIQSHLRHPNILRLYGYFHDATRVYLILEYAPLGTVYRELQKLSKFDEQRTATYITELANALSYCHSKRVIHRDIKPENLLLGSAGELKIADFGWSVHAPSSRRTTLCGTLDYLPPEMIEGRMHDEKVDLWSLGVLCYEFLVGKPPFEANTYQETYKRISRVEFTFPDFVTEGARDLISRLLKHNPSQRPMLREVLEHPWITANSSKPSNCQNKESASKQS

[5] = system: PLK1-pT210 in RPE1 p53-/- cells; experiment: Western blot densitometry, PLK1-pT210, RPE1 p53-/-; format: cell-based, Homo sapiens; conditions: mitotic RPE1 p53-/- lysates, inhibitor 30 min
Experimental: (§3) For measuring monopolar spindle diameter and counting centriolar foci by immunofluorescence, cells were treated with 10 µM STLC for 1 h and 4 h prior to fixation, respectively.
(§4) Drugs were resuspended in DMSO to the stock concentrations indicated in square brackets.
(§5) Cells were lysed on ice for 30 min in lysis buffer (50 mM tris pH 8.0, 300 mM NaCl, 0.2%(v/v) NP-40, 10%(v/v) glycerol, protease inhibitor cocktail C, phosphatase inhibitor cocktail 3 (Sigma, 1:200 dilution), 100 nM okadaic acid (Enzo, ALX-350-003-C100)). Lysates were then centrifuged at 14,000 × g, 15 min, 4 °C, the supernatants were transferred to a fresh tube, and the pellet was discarded. Protein concentrations were measured by Bradford assay using Protein Assay Dye Reagent Concentrate (Bio-Rad Laboratories, 5000006). NuPage LDS sample buffer, supplemented with NuPAGE sample reducing agent (Invitrogen) were added prior to boiling for 10 min at 90 °C. […] Nitrocellulose was then blocked in 5% milk (wt/v) in TBS, 0.1% Tween (v/v) (TBST) for 1 h. Primary and secondary antibodies were diluted in 5% milk, TBST and incubated overnight at 4 °C or for 1 h at room temperature, respectively. […]
(§6) Densitometric quantification of western blots was also performed in ImageJ. Intensity was measured in a rectangular region of interest (ROI) around each band. […] An adjacent region was also measured to account for background intensity.

[6] = system: TCTP-pS46 in RPE1 p53-/- cells; experiment: Western blot densitometry, TCTP-pS46, RPE1 p53-/-; format: cell-based, Homo sapiens; conditions: mitotic RPE1 p53-/- lysates, inhibitor 30 min
Experimental: as §3, §4, §5, §6

[7] = target: T4, human CEP192 468–533; experiment: ITC; 250 μM Aurora-A in the syringe, 25 μM CEP192 construct in the cell; 25 °C; 20 mM tris pH 7.5, 200 mM NaCl, 10% glycerol, 5 mM MgCl2; conditions: both partners purified
[8] = target: B2; experiment: as above; conditions: both partners purified
[9] = target: T5, Aurora-A^CAKD (Aurora-A kinase domain, …); experiment: FP; competition with FAM-TPX2 7-43
[10] = target: B1; experiment: ITC; 250 μM Aurora-A in the syringe, 25 μM CEP192 construct in the cell; 25 °C; 20 mM tris pH 7.5, 200 mM NaCl, 10% glycerol, 5 mM MgCl2; conditions: both partners purified
[11] = target: Aurora-A; conditions: from ITC; ref (Burgess et al, [2015]; McIntyre et al, [2017]; Zorba et al, [2014]); cited from earlier work
Experimental: This is a higher affinity than observed in a previous study that used CEP192 proteins fused to MBP, a large protein tag that might have affected the interaction (Park et al, [2023]). For context, the affinity of Aurora-A for its other key mitotic partners are: TPX2_1-43 (Kd 0.3–2 μM from ITC) and TACC ...

competition for binding with FAM-TPX2 7-43 [1]: competed for binding with FAM-TPX2_7-43
Molecule: IWSPTCERRTCECHESIEKNKDKTDLPQSVVYQNEEGRWVTDLAYYTSFNSKQNLNVSLSDEMNEDFRSGSEAFDLIAQDEEEFNKEHQFIQ [CEP192 442-533, recombinant human CEP192 aa 442–533]
competition for binding with FAM-TACC3 522-536 [2]: competed for binding with FAM-TACC3_522-536 | effect on Aurora-A kinase activity ([3]; ADP-Glo, phosphorylated Aurora-A CAKD, kemptide, in words): partially inhibited the activity

Molecule: TACC3 519-563 (from UniProt Q9Y6A5)
Kd [4]: 6000 nM

Molecule: CC[C@@H]1C(=O)N(C)c2cnc(Nc3ccc(C(=O)NC4CCN(C)CC4)cc3OC)nc2N1C1CCCC1 [BI2536]
T-loop phosphorylation of PLK1 (pT210) [5]: decreased | phosphorylation of TCTP (pS46) [6]: decreased

Molecule: B1
stoichiometry N [7]: 0.85 | stoichiometry N [8]: 0.84

Molecule: B2
IC50 [9]: 14100 nM | Kd [10]: 2000 nM

Molecule: B3
EC50 ([3]; 10 nM phosphorylated Aurora-A CAKD, 10 μM ATP, 100 μM kemptide, 60 min, n = 3, read-out: ADP-Glo EC50 (stimulation of Aurora-A activity)): 6.8 ± 0.5 nM | EC50 ([3]; ADP-Glo, 10 nM Aurora-A, first manuscript version, quoted by referee, read-out: concentration of 50 % max activation): 1 nM | Kd [11]: 300 to 2000 nM
